Assay results: patent US6300103A, “Anti-microbial proteins” (Syngenta Participants AG, priority 1993, dated 2001)
Where a chain is given by its changes, count along the chain named. Ends that are not written are not given here.

B1: peak 3.1: anti-microbial protein of about 7 kDa from sugar beet leaf intercellular washing fluid, peak 3.1 in FIG. 3 (protein)
chain: ITCGLVASKLAPCIGYLQGAPGPSAGCCGGIKGLNSAAASPADRKTACTCLKSAATSIKGINYGKAASLPRQCGVSVPYAISPNTNCNAIH
B2: peak 3.2: anti-microbial protein of about 7 kDa from sugar beet leaf intercellular washing fluid, peak 3.2 in FIG. 3 (protein)
chain: B1 chain with I58M, V77I

System: C. beticola
Assay: microtiter plate bioassay of inhibition of fungal growth (absorbance at 620 nm)
Format: cell-based
Settings: spores of C. beticola in 96 well micro-titre plates, FIGS. 4, 7-8 (10 ug alone, 2 ug each in combination)
Protocol: The thus obtained IWF is fractionated by cation exchange chromatography on a 10 ml CM-Sepharose column (Pharmacia LKB) pre-equilibrated in starting buffer (20 mM HAc (pH 4.5)). The fractionation is performed at 4° C. at a flow rate of 25 ml/h. Fractions of 3 ml are collected. Proteins not bound to the column are removed by extensive washing of the column with starting buffer. Bound proteins are eluted by applying to the column further starting buffer comprising stepwise increased salt concentrations: viz, 0.1 M NaCg, 0.3 M NACl and 0.5 M NaCl. The absorbance at 280 nm of the eluate is measured, and fractions judged to comprise protein are tested for their anti-fungal activity against C. beticola using the microtiter plate bioassay described previously (PCT Patent Application No. PCT/DK92/00108, Publication No. WO 92/17591, now assigned to Sandoz LTD). […] The inhibition of fungal growth is measured in 96 well micro-titre plates at 620 nm, essentially as described in WO 92/17591. […] The proteins, either alone or in combination with WIN N (which is purified from barley grain or stressed barley leaf as described by Hejgaard et al (FEBS Letters, 307, 389-392 (1992)), and/or a protein having a sequence corresponding to at least one of those given in SEQ ID Nos. 4-6, are incubated with spores of C. beticola. The assay mix (240 ul) contains 100 ul of potato dextrose broth (Difco), 40 ul protein sample (or buffer control) in 100 mM Tris and 20 mM NaCl (pH 8.0) as well as approximately 400 spores in 100 ul water. The micro-titre plates are sealed with tape to avoid evaporation and contamination and subsequently incubated at room temperature on an agitator operated at 200 rpm. The absorbance at 620 nm is measured each day for 8 days and plotted for each concentration of protein vs time.

| Molecule | anti-fungal activity (inhibition of fungal growth) |
| --- | --- |
| peaks 1 and 2: anti-microbial protein of 2.5-3 kDa (dimer about 5 kDa) from sugar beet, peaks 1 and 2 in FIG. 6 (SGECNMYGRCPPGYCCSKFGYCGVGRAYCG; cysteine pairing not given here; also: dimer about 5 kDa) | significant anti-fungal activity |
| B1 | significant anti-fungal activity |
| B2 | significant anti-fungal activity |
